The record followed here is US20210261654A1 (BEIJING BEYOND BIOTECHNOLOGY, published 2021).

The assay concerns the target T1, Recombinant human TNF-α (Sino Biological Inc., catalog number: 10602-HNAE) (human, UniProt P01375 77-233).
T1 construct: Bought protein; also called recombinant human TNF-α protein
As to the kind of experiment: SPR (Biacore T100), BY19.4 captured by anti-IgG on CM5 chip.

T1 sequence (P01375 77-233 limits assumed): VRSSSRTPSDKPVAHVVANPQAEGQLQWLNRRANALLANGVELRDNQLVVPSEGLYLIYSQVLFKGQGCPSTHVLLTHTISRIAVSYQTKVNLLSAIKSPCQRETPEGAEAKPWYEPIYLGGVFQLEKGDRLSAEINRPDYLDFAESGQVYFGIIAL

B1: anti-IL-17A antibody BY19.4 (antibody, human IgG4 S228P, kappa, V domains shown)
VH: QVQLVQSGAEVKKPGSSVKVSCKASGYSFTDYHIHWVRQAPGQGLEWMGVINPMYGTTDYNQRFKGRVTITADESTSTAYMELSSLRSEDTAVYYCARYDYFTGTGVYWGQGTLVTVSS
VL: DIVMTQTPLSLSVTPGQPASISCRSSRSLVHSRGNTYLHWYLQKPGQSPQLLIYKVSNRFIGVPDRFSGSGSGTDFTLKISRVEAEDVGVYYCSQSTHLPFTFGQGTKVEIKR
notes: also called control antibody BY19.4; BY19.4 (ixekizumab)
B1: the binding result was “no binding (tested: 7 nM to 600 nM tested)”.
